Measured values: US20190016771A1 (Hoffmann-La Roche, published 2019)

Key:
[1] = biological target: T1, human fibroblast activation protein (FAP) on the cell surface (human, UniProt Q12884 1-760); test: flow cytometry on 3T3-huFAP clone 39 cells, detection with FITC-labelled anti-huIgG (H+L) goat IgG F(ab)2, MFI baseline corrected
T1 construct: also called huFAP; NIH/3T3-huFAP clone 39 cells
T1 sequence: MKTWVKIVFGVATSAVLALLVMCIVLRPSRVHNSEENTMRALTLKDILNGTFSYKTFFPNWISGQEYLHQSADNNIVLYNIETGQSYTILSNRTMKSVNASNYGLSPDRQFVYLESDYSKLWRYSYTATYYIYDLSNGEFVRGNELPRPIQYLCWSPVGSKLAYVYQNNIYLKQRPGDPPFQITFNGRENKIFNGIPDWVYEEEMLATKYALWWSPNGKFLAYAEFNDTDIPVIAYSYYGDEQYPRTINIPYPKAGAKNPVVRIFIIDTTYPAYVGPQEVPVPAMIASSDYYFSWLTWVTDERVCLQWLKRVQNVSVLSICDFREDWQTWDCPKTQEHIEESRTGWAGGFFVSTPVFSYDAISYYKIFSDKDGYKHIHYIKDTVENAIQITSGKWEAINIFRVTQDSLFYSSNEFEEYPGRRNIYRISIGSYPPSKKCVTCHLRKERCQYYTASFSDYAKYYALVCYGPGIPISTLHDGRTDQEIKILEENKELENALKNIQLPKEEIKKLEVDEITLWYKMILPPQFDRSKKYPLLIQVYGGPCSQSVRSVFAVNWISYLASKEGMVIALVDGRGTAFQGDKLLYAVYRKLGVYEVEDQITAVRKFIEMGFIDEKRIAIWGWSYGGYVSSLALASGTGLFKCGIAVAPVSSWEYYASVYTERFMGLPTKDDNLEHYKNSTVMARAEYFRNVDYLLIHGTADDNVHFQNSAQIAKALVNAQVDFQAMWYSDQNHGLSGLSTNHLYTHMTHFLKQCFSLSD
Description: (§1) For binding assays on FAP expressing cells, the NIH/3T3-huFAP clone 39 cell line was used. To generate this cell line, NIH/3T3 cells were transfected with human FAP (NIH/3T3-huFAP clone 39). The cells were generated by transfection of mouse embryonic fibroblast NIH/3T3 cells (ATCC CRL-1658) with the expression pETR4921 plasmid encoding human FAP under a CMV promoter. Cells were maintained in the presence of 1.5 μg/mL puromycin (InvivoGen, Cat.-No.: ant-pr-5). 0.1×10⁶ of FAP expressing tumor cells were added to each well of a round-bottom suspension cell 96-well plates (Greiner bio-one, cellstar, Cat.-No. 650185). Cells were washed once with 200 μL/well 4° C. cold FACS buffer and resuspended in 50 μL/well of 4° C. cold FACS buffer containing different concentrations of titrated FAP-targeted or DP47-targeted CMP-trimeric 4-1BB ligand-containing antigen binding molecule. Resuspended cells were incubated for 2 hour at 4° C. […] Cells were washed twice with 200 μL/well cold FACS buffer and resuspended in 100 μL/well FACS buffer containing 0.2 μg/mL DAPI (Santa Cruz Biotec, Cat. No. Sc-3598) and acquired the same day using a 5-laser LSR-Fortessa (BD Bioscience with DIVA software).

[2] = biological target: T1, human fibroblast activation protein …; test: flow cytometry on 3T3-huFAP clone 39 cells, detection with PE-labelled anti-human CD137L (4-1BBL) mouse IgG2b, MFI baseline corrected
Description: as §1

[3] = biological target: T1, human fibroblast activation protein …; test: flow cytometry on 3T3-huFAP clone 39 cells, detection with FITC-labelled anti-huIgG kappa mouse IgG (clone G18-145), MFI baseline corrected
Description: as §1

B1: FAP(28H1)-targeted hu CMP (CMPtd) trimeric human 4-1BBL(71-254)-containing antigen binding molecule (other)
chain: EVQLLESGGGLVQPGGSLRLSCAASGFTFSSHAMSWVRQAPGKGLEWVSAIWASGEQYYADSVKGRFTISRDNSKNTLYLQMNSLRAEDTAVYYCAKGWLGNFDYWGQGTLVTVSSASTKGPSVFPLAPSSKSTSGGTAALGCLVKDYFPEPVTVSWNSGALTSGVHTFPAVLQSSGLYSLSSVVTVPSSSLGTQTYICNVNHKPSNTKVDKKVEPKSCDGGGGSGGGGSEEDPCACESLVKFQAKVEGLLQALTRKLEAVSKRLAILENTVVSGGGGSGGGGSGGGGSGGGGSREGPELSPDDPAGLLDLRQGMFAQLVAQNVLLIDGPLSWYSDPGLAGVSLTGGLSYKEDTKELVVAKAGVYYVFFQLELRRVVAGEGSGSVSLALHLQPLRSAAGAAALALTVDLPPASSEARNSAFGFQGRLLHLSAGQRLGVHLHTEARARHAWQLTQGATVLGLFRVTPEIPAGLPSPRSE
light: EIVLTQSPGTLSLSPGERATLSCRASQSVSRSYLAWYQQKPGQAPRLLIIGASTRATGIPDRFSGSGSGTDFTLTISRLEPEDFAVYYCQQGQVIPPTFGQGTKVEIKRTVAAPSVFIFPPSDEQLKSGTASVVCLLNNFYPREAKVQWKVDNALQSGNSQESVTEQDSKDSTYSLSSTLTLSKADYEKHKVYACEVTHQGLSSPVTKSFNRGEC
notes: Three fusion chains are covalently linked by disulfides of the huCMP trimerization domain; each pairs with one light chain to form a Fab; also called trimeric FAP-huCMP-4-1BBL
- EC50 (read off the curve) [1]: ~2 nM
- EC50 (read off the curve) [2]: ~0.4 nM
- EC50 (read off the curve) [3]: ~0.7 nM
